Assay results reported in patent US20240075157A1.

Key:
[1] = biological target: cynomolgus FcγRI (cyno FcγR1) (cynomolgus); experiment: BLI, His-cyno FcR1
[2] = biological target: hFcγR2A 167H (human) (UniProt P12318); experiment: BLI, Hu Fc2A 167H
[3] = biological target: human FcγR1 (hFcγR1) (human) (UniProt P12314); experiment: BLI, Hu Fc1
[4] = biological target: hFcγR2B (human) (UniProt P31994); experiment: BLI, Hu Fc2B
[5] = biological target: hFcγR3A 176V (human) (UniProt P08637); experiment: BLI, Hu Fc3A 176V
Sequence of hFcγR3A 176V (human) (P08637 17-208 F176V limits assumed): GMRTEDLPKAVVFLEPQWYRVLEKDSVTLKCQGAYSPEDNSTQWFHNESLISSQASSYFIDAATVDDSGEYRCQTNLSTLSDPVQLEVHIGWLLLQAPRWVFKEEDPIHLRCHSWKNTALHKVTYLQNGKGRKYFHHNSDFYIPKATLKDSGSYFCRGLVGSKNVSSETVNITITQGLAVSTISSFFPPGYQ

[6] = biological target: Hu Fc3A 176F; experiment: BLI, Hu Fc3A 176F
Sequence of Hu Fc3A 176F (chain, as listed by the source limits assumed): as the sequence (P08637 17-208 F176V limits assumed) above, with V160F counted along it

[7] = biological target: hFcγR2A 167R (human) (UniProt P12318); experiment: BLI, Hu Fc2A 167R
Sequence of hFcγR2A 167R (human) (P12318 36-218 H167R): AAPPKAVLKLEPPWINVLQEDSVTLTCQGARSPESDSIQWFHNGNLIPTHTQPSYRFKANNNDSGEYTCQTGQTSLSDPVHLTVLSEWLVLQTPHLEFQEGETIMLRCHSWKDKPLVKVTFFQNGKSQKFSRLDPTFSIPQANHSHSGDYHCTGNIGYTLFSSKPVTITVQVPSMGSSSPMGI

[8] = biological target: hFcγR2A 167R (human) (UniProt P12318); experiment: BLI, Bio-hFcR2A 167R
[9] = biological target: hFcγR2A 167H (human) (UniProt P12318); experiment: BLI, Bio hFcR2A 167H
[10] = biological target: human FcγR1 (hFcγR1) (human) (UniProt P12314); experiment: BLI, Bio-hFcR1
[11] = biological target: human FcγR1 (hFcγR1) (human) (UniProt P12314); experiment: BLI, His-hFcR1
[12] = biological target: hFcγR2B (human) (UniProt P31994); experiment: BLI, Bio-hFcR2B
[13] = biological target: hFcγR2B (human) (UniProt P31994); experiment: BLI, FcR2B, 450nM IgG
[14] = biological target: human FcγR1 (hFcγR1) (human) (UniProt P12314); experiment: BLI, FcR1, 10nM IgG
[15] = biological target: human FcγR1 (hFcγR1) (human) (UniProt P12314); experiment: BLI, FcR1, 50nM IgG
[16] = biological target: hFcγR2A 167H (human) (UniProt P12318); experiment: BLI, FcR2A 167H, 600nM IgG
[17] = biological target: hFcγR3B (human) (UniProt O75015); experiment: BLI, FcR3B, 450nM IgG
Sequence of hFcγR3B (human) (O75015 17-200 limits assumed): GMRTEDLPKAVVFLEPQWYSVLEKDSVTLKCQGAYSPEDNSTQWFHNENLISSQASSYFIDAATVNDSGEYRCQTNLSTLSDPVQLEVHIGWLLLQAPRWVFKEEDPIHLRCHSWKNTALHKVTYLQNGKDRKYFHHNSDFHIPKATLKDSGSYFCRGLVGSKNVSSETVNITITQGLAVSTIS

[18] = biological target: hFcγR2B (human) (UniProt P31994); experiment: BLI, FcR2B, 600nM IgG
[19] = biological target: hFcγR2A 167R (human) (UniProt P12318); experiment: BLI, FcR2A 167R, 600nM IgG
[20] = biological target: hFcγR3B (human) (UniProt O75015); experiment: BLI, FcR3B, 600nM IgG
[21] = biological target: hFcγR2A 167R (human) (UniProt P12318); experiment: BLI, FcR2A 167R, 450nM IgG
[22] = biological target: human FcγR1 (hFcγR1) (human) (UniProt P12314); experiment: BLI, FcR1, 25nM IgG
[23] = biological target: hFcγR2A 167H (human) (UniProt P12318); experiment: BLI, FcR2A 167H, 450nM IgG

Sequence of cynomolgus FcγRI (cyno FcγR1) (cynomolgus) (A0A2K5 entry or part of it limits assumed): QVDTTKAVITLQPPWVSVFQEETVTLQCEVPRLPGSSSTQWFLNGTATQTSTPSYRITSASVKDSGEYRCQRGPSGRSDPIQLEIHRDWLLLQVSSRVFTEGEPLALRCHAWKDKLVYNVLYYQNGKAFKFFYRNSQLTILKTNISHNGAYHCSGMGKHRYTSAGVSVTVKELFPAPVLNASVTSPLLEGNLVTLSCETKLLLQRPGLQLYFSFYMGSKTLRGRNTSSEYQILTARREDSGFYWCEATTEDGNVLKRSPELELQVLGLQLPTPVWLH
Sequence of human FcγR1 (hFcγR1) (human) (P12314 16-288 limits assumed): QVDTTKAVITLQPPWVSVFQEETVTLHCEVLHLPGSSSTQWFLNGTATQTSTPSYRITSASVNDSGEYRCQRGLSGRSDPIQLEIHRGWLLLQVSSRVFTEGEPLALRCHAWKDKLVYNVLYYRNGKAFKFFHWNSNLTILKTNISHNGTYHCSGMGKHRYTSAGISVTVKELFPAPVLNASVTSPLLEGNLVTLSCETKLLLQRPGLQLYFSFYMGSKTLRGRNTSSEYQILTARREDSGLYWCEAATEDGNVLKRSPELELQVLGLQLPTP
Sequence of hFcγR2B (human) (P31994 46-217): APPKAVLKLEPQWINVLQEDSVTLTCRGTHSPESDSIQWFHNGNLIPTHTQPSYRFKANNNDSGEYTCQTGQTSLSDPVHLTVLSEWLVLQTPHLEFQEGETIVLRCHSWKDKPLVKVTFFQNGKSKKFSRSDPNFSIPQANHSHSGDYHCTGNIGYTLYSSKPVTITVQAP
Sequence of hFcγR2A 167H (human) (P12318 36-218): as the sequence (P12318 36-218 H167R) above, with R132H counted along it

Substance | normalized binding response [2] | normalized binding response [3] | normalized binding response [4] | normalized binding response [6] | normalized binding response [7] | other results
Ab2 D265C N297Q (antibody) | – | – | – | – | – | Normalized Response [1]: 7 % of WT
Ab2 D265C N297Q H435A (antibody) | – | – | – | – | – | Normalized Response [1]: 7 % of WT
Ab5 (anti-CD45 antibody) D265A variant | 2 % of WT | 40 % of WT | 2 % of WT | – | – | –
Ab5 (anti-CD45 antibody) D265C.N297A.H435A variant | – | – | 2 % of WT | – | – | –
Ab5 (anti-CD45 antibody) LALA variant | 4 % of WT | – | 3 % of WT | 19 % of WT | 2 % of WT | normalized binding response [5]: 34 % of WT
Ab5 D265A.H435A (antibody) | 3 % of WT | 35 % of WT | 1 % of WT | – | – | –
Ab5 D265C.LALA.P329G.H435A (antibody) | – | 4 % of WT | – | 1 % of WT | – | –
Ab5 LALA.P331G (antibody) | – | – | 8 % of WT | – | 1 % of WT | –
Isotype WT (antibody) | – | – | – | – | – | Normalized Response [8]: 102 % of WT; Normalized Response [9]: 90 % of WT; Normalized Response [10]: 91 % of WT; Normalized Response [11]: 85 % of WT; Normalized Response [1]: 82 % of WT; Normalized Response [12]: 95 % of WT
naked (un-conjugated) antibody (i.e., the isotype control) of FIGS. 1D and 1E | – | – | – | – | – | % Binding vs Wild Type hIgG1 [13]: 100%; % Binding vs Wild Type hIgG1 [14]: 100%; % Binding vs Wild Type hIgG1 [15]: 100%; % Binding vs Wild Type hIgG1 [16]: 100%; % Binding vs Wild Type hIgG1 [17]: 100%; % Binding vs Wild Type hIgG1 [18]: 100%; % Binding vs Wild Type hIgG1 [19]: 100%; % Binding vs Wild Type hIgG1 [20]: 100%; % Binding vs Wild Type hIgG1 [21]: 100%; % Binding vs Wild Type hIgG1 [22]: 100%; % Binding vs Wild Type hIgG1 [23]: 100%

Now from value to substance, other results behind:

normalized binding response [2] | normalized binding response [3] | normalized binding response [4] | normalized binding response [6] | normalized binding response [7] | Substance | other results
– | – | 1 % of WT | – | – | Ab5 CH2 deleted (antibody) | –
– | 33 % of WT | 3 % of WT | – | – | Ab5 D265C.H435A (antibody) | –
66 % of WT | 1 % of WT | 10 % of WT | 9 % of WT | 15 % of WT | Ab5 EPLVLAdelG (antibody) | normalized binding response [5]: 16 % of WT
– | – | – | – | 2 % of WT | Ab5 LALA.P329G (antibody) | –
150 % of WT | 121 % of WT | 120 % of WT | 62 % of WT | 56 % of WT | YTH24.5 (anti-CD45 rIgG2b) (antibody) | –
3 % of WT | – | 8 % of WT | 1 % of WT | 74 % of WT | rIgG2a (rat IgG2a isotype control) (antibody) | –
